The source of these data is publication PMC8849337.

Holding throughout (experiment): pull-down
Test [1] has as its target MBP-3C–PPM-1.D–truncated–10×HIS (C. elegans).
Test [2] concerns the target MBP–PPM-1.D–10×HIS (C. elegans).
In test [3] the target is PPM-1.D(568-766) (C. elegans).

B1: GST–CHK-2–3×FLAG (enzyme)
chain: MVRGTKRRRSSAEKPIVVVPVTRDDTMPVDEDLVVGESQCAASKPFAKLVGVRRGISSIDLADDHFVCGRGSDDAPTNFNFSQVAKDVGLYRFISKIQFSIDRDTETRRIYLHDHSRNGTLVNQEMIGKGLSRELMNGDLISIGIPALIIFVYESADADHHPEELTKKYHVTSHSLGKGGFGKVLLGYKKSDRSVVAIKQLNTQFSTRCSRAIAKTRDIRNEVEVMKKLSHPNIVAIYDWITVAKYSYMVIEYVGGGEFFSKVVDSKYNRMGLGESLGKYFAFQLIDAILYLHSVGICHRDIKPENILCSDKAERCILKLTDFGMAKNSVNRMKTRCGTPSYNAPEIVANEGVEYTPKVDIWSLGCVLFITFSGYPPFSEEYTDMTMDEQVLTGRLIFHAQWRRITVETQNMIKWMLTVEPSNRPSAVELMSTQWMKCADCRTAKQDILKSIKPISAAAPAALQTTQAGPVKKAKM
Consider B1, for which the fold binding relative to the MBP affinity tag (NRDE2∆N control) in test [1] was determined as 4 times. This molecule had a fold binding relative to PPM-1.D lacking the C terminus in test [2] of 70 fold. Also, in test [3], the fold less binding than PPM-1.D turned out to be 10 times and the fold more binding than PPM-1.D^trunc was 7 times.
